Results: patent publication US7556938B1, “Nucleic acids encoding potassium channel interactors” (Millennium Pharmaceuticals, Inc., priority 1998, dated 2009)
Each block holds one molecule with its values, some of them ahead of it.

Molecular target: T1, rKv4.2 (Rattus norvegicus, UniProt Q63881)
T1 construct: expressed in transfected cells; host or cells: CHO cells, transient transfection with GFP co-transfected
T1 sequence (Q63881 1-630): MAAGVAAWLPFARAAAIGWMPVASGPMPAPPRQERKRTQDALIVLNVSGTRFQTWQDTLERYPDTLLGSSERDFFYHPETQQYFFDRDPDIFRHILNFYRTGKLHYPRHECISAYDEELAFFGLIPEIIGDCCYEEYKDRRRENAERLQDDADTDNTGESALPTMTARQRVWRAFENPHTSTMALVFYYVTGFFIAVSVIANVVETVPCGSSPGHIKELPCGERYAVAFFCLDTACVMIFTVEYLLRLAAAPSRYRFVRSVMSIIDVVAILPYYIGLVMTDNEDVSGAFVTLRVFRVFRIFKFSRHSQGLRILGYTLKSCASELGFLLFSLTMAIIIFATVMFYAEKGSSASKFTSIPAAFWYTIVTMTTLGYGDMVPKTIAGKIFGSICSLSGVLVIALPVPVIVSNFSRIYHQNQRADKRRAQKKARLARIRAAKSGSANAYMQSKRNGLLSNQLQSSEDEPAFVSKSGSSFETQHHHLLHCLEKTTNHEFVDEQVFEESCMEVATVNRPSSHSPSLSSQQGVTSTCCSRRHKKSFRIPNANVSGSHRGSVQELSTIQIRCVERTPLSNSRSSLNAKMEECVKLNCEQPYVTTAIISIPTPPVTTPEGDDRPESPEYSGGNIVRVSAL
Experiment: Patch-clamp of Kv4.2 currents in CHO cells coexpressing KChIPs
Assay type: cell-based
Conditions: for effects on Kv4.2 current density and kinetics: coexpressed with Kv4.2
Protocol: HEK 293 and CHO cells were used for recordings 1-3 days after a transient transfection. Whole-cell currents were recorded from cells expressing GFP, identified by their green fluorescence. […] After Gigaseal and ruptured whole-cell configuration access, resistance was less than 10 MOhms. Whole-cell bath solutions were made from a 10× Hank's balanced salt solution (GibcoBRL) with the following final concentration (in mM): 138 NaCl, 5.4 KCl, 1.3 MgCl2, 1.3 CaCl2, 5.5 D-Glukos and 10 HEPES, pH 7.4. The intracellular electrode solution consisted of (in mM) 140 KCl, 10 HEPES, 10 EGTA, 0.5 MgCl2, pH 7.3. All chemicals were from Sigma (St. Louis, Mo.) or Fisher Scientific (Houston, Tex.). Membrane currents were recorded using a EPC9 patch-clamp amplifier (HEKA, Germany). Data were analyzed using Matlab (Natick, Ma), and leak subtracted if necessary. All experiments were done at room temperature.
Because PCIPs, e.g., KChIP1 (1v), KChIP2 (9ql), and KChIP3 (p19), colocalize and coassociate with Kv4 α-subunits in brain, another critical question was to determine whether these PCIPs alter the conductance properties of Kv4 channels. To address this issue, Kv4.2 and Kv4.3 were expressed alone and in combination with individual PCIPs. CHO cells were transiently-transfected with cDNA using the DOTAP lipofection method as described by the manufacturer (Boehringer Mannheim, Inc.). Transfected cells were identified by cotransfecting enhanced GFP along with the genes of interest and subsequently determining if the cells contained green GFP fluorescence. Currents in CHO cells were measured using the patch-clamp technique (Hamill et al. 1981. Pfluegers Arch. 391: 85-100).
First, the amplitude of the Kv4.2 current increased approximately 7.5 fold in the presence of KChIP1 (amplitude of Kv4.2 alone=0.60+/−0.096 nA/cell; Kv4.2+KChIP1=4.5+/−0.55 nA/cell). […] Finally, the kinetics of Kv4.2 inactivation slowed considerably when Kv4.2 was coexpressed with KChIP1 (inactivation time constant of Kv4.2 alone=28.2+/−2.6 ms; Kv4.2+KChIP1=104.1+/−10.4 ms), while channels recovered from inactivation much more rapidly in cells expressing both Kv4.2 and KChIP1 (recovery tau=53.6+/−7.6 ms) versus cells expressing Kv4.2 alone (recovery tau=272.2+/−26.1 ms).

B1: KChIP3: Potassium channel interacting protein KChIP3 (p19) (protein)
chain: MQRTKEAMKASDGSLLGDPGRIPLSKREGIKWQRPRFTRQALMRCCLIKWILSSAAPQGSDSSDSELELSTVRHQPEGLDQLQAQTKFTKKELQSLYRGFKNECPTGLVDEDTFKLIYSQFFPQGDATTYAHFLFNAFDADGNGAIHFEDFVVGLSILLRGTVHEKLKWAFNLYDINKDGYITKEEMLAIMKSIYDMMGRHTYPILREDAPLEHVERFFQKMDRNQDGVVTIDEFLETCQKDENIMSSMQLFENVI
- effects on Kv4.2 current density and kinetics: strikingly similar to those produced by KChIP1

B2: KChIP2: Potassium channel interacting protein KChIP2 (9ql) (protein)
chain: MRGQGRKESLSESRDLDGSYDQLTGHPPGPSKKALKQRFLKLLPCCGPQALPSVSETLAAPASLRPHRPRPLDPDSVEDEFELSTVCHRPEGLEQLQEQTKFTRRELQVLYRGFKNECPSGIVNEENFKQIYSQFFPQGDSSNYATFLFNAFDTNHDGSVSFEDFVAGLSVILRGTIDDRLSWAFNLYDLNKDGCITKEEMLDIMKSIYDMMGKYTYPALREEAPREHVESFFQKMDRNKDGVVTIEEFIESCQQDENIMRSMQLFDNVI
- effects on Kv4.2 current density and kinetics: strikingly similar to those produced by KChIP1

- Inactivation time constant (ms, at 50 mV) (rKv4.2 coexpressed with the KChIP, at 50 mV): 129.2 ± 14.2 ms
B3: KChIP1 ΔN2-31: N-terminal truncation mutant of KChIP1, reduced to the C-terminal 185 amino acid core sequence (protein)
chain: MLCSSLKLLHYLGLIDLSDDKIEDDLEMTMVCHRPEGLEQLEAQTNFTKRELQVLYRGFKNECPSGVVNEETFKQIYAQFFPHGDASTYAHYLFNAFDTTQTGSVKFEDFVTALSILLRGTVHEKLRWTFNLYDINKDGYINKEEMMDIVKAIYDMMGKYTYPVLKEDTPRQHVDVFFQKMDKNKD
- effects on Kv4.2 current density and kinetics: indistinguishable from the effects produced by full-length KChIP1 or KChIP2
